In general, EC50 refers to the concentration at which the effect is half-maximal. One may read the Kd as a measure of binding affinity in units of concentration. A low value points to tighter binding. As usually defined, the koff is the first-order rate constant of dissociation. A lower koff goes with a long-lived complex.

Here are results for 4 molecules from publication PMC4645341 (Journal of Virology, 2015).

Where no end group is shown, it is not given here.

For experiment [1], the target named is MPER-TM1 (HIV-1 (strain not stated)). Description: ELISA.
In experiment [2] the target is Recombinant gp41 (r-gp41; HIV-1MN isolate) (HIV-1 isolate MN, UniProt P05877). Description: ELISA. (In general: ELISA stands for enzyme-linked immunosorbent assay.)
The target in experiment [3] is 4E10 WT Fab. Description: SPR.

Chain of Recombinant gp41 (r-gp41; HIV-1MN isolate) (P05877 whole entry, looked up): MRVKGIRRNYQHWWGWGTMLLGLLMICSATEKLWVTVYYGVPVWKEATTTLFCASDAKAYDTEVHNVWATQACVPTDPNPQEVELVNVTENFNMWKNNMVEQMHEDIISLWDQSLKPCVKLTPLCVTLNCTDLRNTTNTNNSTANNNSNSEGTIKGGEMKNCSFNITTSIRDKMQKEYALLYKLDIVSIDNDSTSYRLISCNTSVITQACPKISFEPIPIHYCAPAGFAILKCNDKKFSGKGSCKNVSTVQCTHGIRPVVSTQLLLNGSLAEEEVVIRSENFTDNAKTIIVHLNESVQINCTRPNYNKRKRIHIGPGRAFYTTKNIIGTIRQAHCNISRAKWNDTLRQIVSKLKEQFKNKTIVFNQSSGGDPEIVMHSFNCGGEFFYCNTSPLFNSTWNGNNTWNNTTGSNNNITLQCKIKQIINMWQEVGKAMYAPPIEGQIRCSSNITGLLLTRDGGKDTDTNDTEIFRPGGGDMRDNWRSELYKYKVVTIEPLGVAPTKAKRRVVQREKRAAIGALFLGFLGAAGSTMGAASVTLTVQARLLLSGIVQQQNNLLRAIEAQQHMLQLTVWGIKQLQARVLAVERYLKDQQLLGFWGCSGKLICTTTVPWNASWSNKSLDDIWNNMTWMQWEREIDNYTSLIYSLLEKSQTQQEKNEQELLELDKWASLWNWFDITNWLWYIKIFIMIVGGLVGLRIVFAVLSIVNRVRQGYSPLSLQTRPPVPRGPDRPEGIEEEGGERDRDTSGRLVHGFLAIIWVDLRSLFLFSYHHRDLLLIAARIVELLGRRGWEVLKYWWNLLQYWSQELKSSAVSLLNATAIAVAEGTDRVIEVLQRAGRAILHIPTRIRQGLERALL

For 4E10 WT Fab, the EC50 in experiment [1] was 1 nM. Take 4E10 IgG1 MAb (antibody): the EC50 in experiment [1] is 0.1 nM.

B1: 4E10 WDWD Fab (Fab, V domains shown)
VH: VQLVQSGAEVKRPGSSVTVSCKASGGSFSTYALSWVRQAPGRGLEWMGGVIPLLTITNYAPRFQGRITITADRSTSTAYLELNSLRPEDTAVYYCAREGTTGDGDLGKPIGAFAHWGQGTLVTVSS
VL: EIVLTQSPGTQSLSPGERATLSCRASQSVGNNKLAWYQQRPGQAPRLLIYGASSRPSGVADRFSGSGSGTDFTLTISRLEPEDFAVYYCQQYGQSLSTFGQGTKVEVK
As for B1, the binding result in experiment [2] is “binds”. In experiment [3], NWFDITNWLWYIRRRR-NH2 [4E10ep variant (…-RRR)] came in with a Kd of 21 nM, a dH (van't Hoff) of -11.5 kcal/mol and a koff of 0.0011 s⁻¹.
